In patent US20140105889A1 (published 2014):

Molecular target: T1, human FcγRIIIa(F) (human, UniProt P08637 17-208, limits assumed)
T1 construct: also called FcgRIIIaF; FcγRIIIa allotype F158
Test: SPR (Biacore), captured antibody, FcγR analyte; bound amount relative to GpH7-B3/GpL16-k0 x100;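 note: receptor response divided by the antibody amount captured on the chip before comparison with the reference antibody, measured at 25 °C in HBS-EP+ running buffer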
Method: Interaction between each modified antibody and Fcγ receptor prepared in the manner described above was analyzed using the Biacore T100 (GE Healthcare), Biacore T200 (GE Healthcare), Biacore A100 or Biacore 4000. HBS-EP+ (GE Healthcare) was used for the running buffer, and measurements were carried out at 25° C. The chips used were chips in which antigen peptides, Protein A (Thermo Scientific), Protein A/G (Thermo Scientific) or Protein L (ACTIGEN or BioVision) were immobilized on the Series S Sensor Chip CM5 (GE Healthcare) or Series S Sensor Chip CM4 (GE Healthcare) by amine coupling, or chips in which preliminarily biotinylated antigen peptides were allowed to interact and then immobilized on the Series S Sensor Chip SA (certified) (GE Healthcare). The target antibodies were captured on these sensor chips, Fcγ receptor diluted with the running buffer was allowed to interact, followed by measurement of the amount of bound antibody. The amounts bound were compared between antibodies. However, since the amount of Fcγ receptor bound depends on the amount of captured antibody, the values used for comparison were first corrected by dividing the amount of Fcγ receptor bound by the captured amount of each antibody. Through reaction with 10 mM glycine-HCl at pH 1.5, the sensor chips were regenerated by washing off antibody captured on the sensor chips and used repeatedly.
Binding strength was evaluated according to the following method based on the results of analyzing the interaction with each FcγR. […] That value was then further multiplied by 100, and the resulting value was used as an indicator of relative binding activity to each FcγR.

T1 sequence (P08637 other isoform, or with tags, fused parts or gaps limits assumed): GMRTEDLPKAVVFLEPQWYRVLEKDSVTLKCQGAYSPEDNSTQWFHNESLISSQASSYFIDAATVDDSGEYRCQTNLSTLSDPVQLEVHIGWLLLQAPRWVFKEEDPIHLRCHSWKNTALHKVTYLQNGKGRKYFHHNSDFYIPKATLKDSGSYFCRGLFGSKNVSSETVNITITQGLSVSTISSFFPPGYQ

| relative binding activity | Binder |
| --- | --- |
| 24 % of GpH7-B3/GpL16-k0 | GpH7-B3/GpL16-k0 with A327M introduced into GpH7-B3 (antibody, human IgG1, Anti-glypican-3 human IgG1; constant region B3 (G1d with K439E); Fc variant; also called B3 variant; copies: 2 + 2) heavy: not shown light: DIVMTQSPLSLPVTPGEPASISCQASESLVHSNRNTYLHWYLQKPGQSPQLLIYKVSNRFSGVPDRFSGSGSGTDFTLKISRVEAEDVGVYYCSQNTHVPPTFGQGTKVEIE |
| 8 % of GpH7-B3/GpL16-k0 | GpH7-B3/GpL16-k0 with L328G introduced into GpH7-B3 (antibody, human IgG1, Anti-glypican-3 human IgG1; constant region B3 (G1d with K439E); Fc variant; also called B3 variant; copies: 2 + 2) heavy: not shown light: DIVMTQSPLSLPVTPGEPASISCQASESLVHSNRNTYLHWYLQKPGQSPQLLIYKVSNRFSGVPDRFSGSGSGTDFTLKISRVEAEDVGVYYCSQNTHVPPTFGQGTKVEIE |
| 5 % of GpH7-B3/GpL16-k0 | GpH7-B3/GpL16-k0 with A327K introduced into GpH7-B3 (antibody, human IgG1, Anti-glypican-3 human IgG1; constant region B3 (G1d with K439E); Fc variant; also called B3 variant; copies: 2 + 2) heavy: not shown light: DIVMTQSPLSLPVTPGEPASISCQASESLVHSNRNTYLHWYLQKPGQSPQLLIYKVSNRFSGVPDRFSGSGSGTDFTLKISRVEAEDVGVYYCSQNTHVPPTFGQGTKVEIE |
| 16 % of GpH7-B3/GpL16-k0 | GpH7-B3/GpL16-k0 with A327F introduced into GpH7-B3 (antibody, human IgG1, Anti-glypican-3 human IgG1; constant region B3 (G1d with K439E); Fc variant; also called B3 variant; copies: 2 + 2) heavy: not shown light: DIVMTQSPLSLPVTPGEPASISCQASESLVHSNRNTYLHWYLQKPGQSPQLLIYKVSNRFSGVPDRFSGSGSGTDFTLKISRVEAEDVGVYYCSQNTHVPPTFGQGTKVEIE |
| 13 % of GpH7-B3/GpL16-k0 | GpH7-B3/GpL16-k0 with A327L introduced into GpH7-B3 (antibody, human IgG1, Anti-glypican-3 human IgG1; constant region B3 (G1d with K439E); Fc variant; also called B3 variant; copies: 2 + 2) heavy: not shown light: DIVMTQSPLSLPVTPGEPASISCQASESLVHSNRNTYLHWYLQKPGQSPQLLIYKVSNRFSGVPDRFSGSGSGTDFTLKISRVEAEDVGVYYCSQNTHVPPTFGQGTKVEIE |

More lines, now with the values behind:

| Binder | relative binding activity |
| --- | --- |
| GpH7-B3/GpL16-k0 with A327R introduced into GpH7-B3 (antibody, human IgG1, Anti-glypican-3 human IgG1; constant region B3 (G1d with K439E); Fc variant; also called B3 variant; copies: 2 + 2) heavy: not shown light: DIVMTQSPLSLPVTPGEPASISCQASESLVHSNRNTYLHWYLQKPGQSPQLLIYKVSNRFSGVPDRFSGSGSGTDFTLKISRVEAEDVGVYYCSQNTHVPPTFGQGTKVEIE | 1 % of GpH7-B3/GpL16-k0 |
| GpH7-B3/GpL16-k0 with A327Q introduced into GpH7-B3 (antibody, human IgG1, Anti-glypican-3 human IgG1; constant region B3 (G1d with K439E); Fc variant; also called B3 variant; copies: 2 + 2) heavy: not shown light: DIVMTQSPLSLPVTPGEPASISCQASESLVHSNRNTYLHWYLQKPGQSPQLLIYKVSNRFSGVPDRFSGSGSGTDFTLKISRVEAEDVGVYYCSQNTHVPPTFGQGTKVEIE | 18 % of GpH7-B3/GpL16-k0 |
| GpH7-B3/GpL16-k0 with A327Y introduced into GpH7-B3 (antibody, human IgG1, Anti-glypican-3 human IgG1; constant region B3 (G1d with K439E); Fc variant; also called B3 variant; copies: 2 + 2) heavy: not shown light: DIVMTQSPLSLPVTPGEPASISCQASESLVHSNRNTYLHWYLQKPGQSPQLLIYKVSNRFSGVPDRFSGSGSGTDFTLKISRVEAEDVGVYYCSQNTHVPPTFGQGTKVEIE | 13 % of GpH7-B3/GpL16-k0 |
| GpH7-B3/GpL16-k0 with A327H introduced into GpH7-B3 (antibody, human IgG1, Anti-glypican-3 human IgG1; constant region B3 (G1d with K439E); Fc variant; also called B3 variant; copies: 2 + 2) heavy: not shown light: DIVMTQSPLSLPVTPGEPASISCQASESLVHSNRNTYLHWYLQKPGQSPQLLIYKVSNRFSGVPDRFSGSGSGTDFTLKISRVEAEDVGVYYCSQNTHVPPTFGQGTKVEIE | 14 % of GpH7-B3/GpL16-k0 |
| GpH7-B3/GpL16-k0 with A327W introduced into GpH7-B3 (antibody, human IgG1, Anti-glypican-3 human IgG1; constant region B3 (G1d with K439E); Fc variant; also called B3 variant; copies: 2 + 2) heavy: not shown light: DIVMTQSPLSLPVTPGEPASISCQASESLVHSNRNTYLHWYLQKPGQSPQLLIYKVSNRFSGVPDRFSGSGSGTDFTLKISRVEAEDVGVYYCSQNTHVPPTFGQGTKVEIE | 17 % of GpH7-B3/GpL16-k0 |
| GpH7-B3/GpL16-k0 with A327T introduced into GpH7-B3 (antibody, human IgG1, Anti-glypican-3 human IgG1; constant region B3 (G1d with K439E); Fc variant; also called B3 variant; copies: 2 + 2) heavy: not shown light: DIVMTQSPLSLPVTPGEPASISCQASESLVHSNRNTYLHWYLQKPGQSPQLLIYKVSNRFSGVPDRFSGSGSGTDFTLKISRVEAEDVGVYYCSQNTHVPPTFGQGTKVEIE | 10 % of GpH7-B3/GpL16-k0 |
| GpH7-B3/GpL16-k0 with A327V introduced into GpH7-B3 (antibody, human IgG1, Anti-glypican-3 human IgG1; constant region B3 (G1d with K439E); Fc variant; also called B3 variant; copies: 2 + 2) heavy: not shown light: DIVMTQSPLSLPVTPGEPASISCQASESLVHSNRNTYLHWYLQKPGQSPQLLIYKVSNRFSGVPDRFSGSGSGTDFTLKISRVEAEDVGVYYCSQNTHVPPTFGQGTKVEIE | 18 % of GpH7-B3/GpL16-k0 |
| GpH7-B3/GpL16-k0 with A327P introduced into GpH7-B3 (antibody, human IgG1, Anti-glypican-3 human IgG1; constant region B3 (G1d with K439E); Fc variant; also called B3 variant; copies: 2 + 2) heavy: not shown light: DIVMTQSPLSLPVTPGEPASISCQASESLVHSNRNTYLHWYLQKPGQSPQLLIYKVSNRFSGVPDRFSGSGSGTDFTLKISRVEAEDVGVYYCSQNTHVPPTFGQGTKVEIE | 20 % of GpH7-B3/GpL16-k0 |
| GpH7-B3/GpL16-k0 with A327S introduced into GpH7-B3 (antibody, human IgG1, Anti-glypican-3 human IgG1; constant region B3 (G1d with K439E); Fc variant; also called B3 variant; copies: 2 + 2) heavy: not shown light: DIVMTQSPLSLPVTPGEPASISCQASESLVHSNRNTYLHWYLQKPGQSPQLLIYKVSNRFSGVPDRFSGSGSGTDFTLKISRVEAEDVGVYYCSQNTHVPPTFGQGTKVEIE | 42 % of GpH7-B3/GpL16-k0 |
